Measurements reported in article PMC2661964, “Mammalian Kinesin-3 Motors Are Dimeric In Vivo and Move by Processive Motility upon Release of Autoinhibition” (PLoS Biology, 2009).

B1: KIF1A(1–726)-3xmCit (domain or fragment, rat, UniProt F1M4A4 1-726, looked up)
chain: MAGASVKVAVRVRPFNSREMSRDSKCIIQMSGSTTTIVNPKQPKETPKSFSFDYSYWSHTSPEDINYASQKQVYRDIGEEMLQHAFEGYNVCIFAYGQTGAGKSYTMMGKQEKDQQGIIPQLCEDLFSRINDTTNDNMSYSVEVSYMEIYCERVRDLLNPKNKGNLRVREHPLLGPYVEDLSKLAVTSYNDIQDLMDSGNKARTVAATNMNETSSRSHAVFNIIFTQKRHDAETNITTEKVSKISLVDLAGSERADSTGAKGTRLKEGANINKSLTTLGKVISALAEMDSGPNKNKKKKKTDFIPYRDSVLTWLLRENLGGNSRTAMVAALSPADINYDETLSTLRYADRAKQIRCNAIINEDPNNKLIRELKDEVTRLRDLLYAQGLGDITDTNTVPGGPKLTNALVGMSPSSSLSALSSRAASVSSLHERILFAPGSEEAIERLKETEKIIAELNETWEEKLRRTEAIRMEREALLAEMGVAMREDGGTLGVFSPKKTPHLVNLNEDPLMSECLLYYIKDGVTRVGREDAERRQDIVLSGHFIKEEHCIFRSDSRGGGEAVVTLEPCEGADTYVNGKKVTEPSILRSGNRIIMGKSHVFRFNHPEQARQERERTPCAETPAEPVDWAFAQRELLEKQGIDMKQEMEQRLQELEDQYRREREEATYLLEQQRLDYESKLEALQKQMDSRYYPEVNEEEEEPEDEVQWTERECELALWAFRKWKWY
notes: source: COS cells, transfected, in lysate
B2: KIF1A(1–393)-3xmCit (domain or fragment, rat, UniProt F1M4A4 1-393, looked up)
chain: MAGASVKVAVRVRPFNSREMSRDSKCIIQMSGSTTTIVNPKQPKETPKSFSFDYSYWSHTSPEDINYASQKQVYRDIGEEMLQHAFEGYNVCIFAYGQTGAGKSYTMMGKQEKDQQGIIPQLCEDLFSRINDTTNDNMSYSVEVSYMEIYCERVRDLLNPKNKGNLRVREHPLLGPYVEDLSKLAVTSYNDIQDLMDSGNKARTVAATNMNETSSRSHAVFNIIFTQKRHDAETNITTEKVSKISLVDLAGSERADSTGAKGTRLKEGANINKSLTTLGKVISALAEMDSGPNKNKKKKKTDFIPYRDSVLTWLLRENLGGNSRTAMVAALSPADINYDETLSTLRYADRAKQIRCNAIINEDPNNKLIRELKDEVTRLRDLLYAQGLGDITD
notes: as for B1
B3: KIF1A-3xmCit (natural protein, rat, UniProt F1M4A4 1-1707, looked up)
chain: MAGASVKVAVRVRPFNSREMSRDSKCIIQMSGSTTTIVNPKQPKETPKSFSFDYSYWSHTSPEDINYASQKQVYRDIGEEMLQHAFEGYNVCIFAYGQTGAGKSYTMMGKQEKDQQGIIPQLCEDLFSRINDTTNDNMSYSVEVSYMEIYCERVRDLLNPKNKGNLRVREHPLLGPYVEDLSKLAVTSYNDIQDLMDSGNKARTVAATNMNETSSRSHAVFNIIFTQKRHDAETNITTEKVSKISLVDLAGSERADSTGAKGTRLKEGANINKSLTTLGKVISALAEMDSGPNKNKKKKKTDFIPYRDSVLTWLLRENLGGNSRTAMVAALSPADINYDETLSTLRYADRAKQIRCNAIINEDPNNKLIRELKDEVTRLRDLLYAQGLGDITDTNTVPGGPKLTNALVGMSPSSSLSALSSRAASVSSLHERILFAPGSEEAIERLKETEKIIAELNETWEEKLRRTEAIRMEREALLAEMGVAMREDGGTLGVFSPKKTPHLVNLNEDPLMSECLLYYIKDGVTRVGREDAERRQDIVLSGHFIKEEHCIFRSDSRGGGEAVVTLEPCEGADTYVNGKKVTEPSILRSGNRIIMGKSHVFRFNHPEQARQERERTPCAETPAEPVDWAFAQRELLEKQGIDMKQEMEQRLQELEDQYRREREEATYLLEQQRLDYESKLEALQKQMDSRYYPEVNEEEEEPEDEVQWTERECELALWAFRKWKWYQFTSLRDLLWGNAIFLKEANAISVELKKKVQFQFVLLTDTLYSPLPPDLLPPEAAKDRETRPFPRTIVAVEVQDQKNGATHYWTLEKLRQRLDLMREMYDRAAEVPSSVVEDCDNVVTGGDPFYDRFPWFRLVGRAFVYLSNLLYPVPLVHRVAIVSEKGEVKGFLRVAVQAISADEEAPDYGSGVRQSGTAKISFDDQHFEKFQSESCPVVGMSRSGTSQEELRIVEGQGQGADAGPSADEVNNNTCSAVPPEGLLDSPEKAALDGPLDTALDHLRLGSTFTFRVTVLQASSISAEYADIFCQFNFIHRHDEAFSTEPLKNTGRGPPLGFYHVQNIAVEVTKSFIEYIKSQPIVFEVFGHYQQHPFPPLCKDVLSPLRPSRRHFPRVMPLSKPVPATKLSTMTRPSPGPCHCKYDLLVYFEICELEANGDYIPAVVDHRGGMPCMGTFLLHQGIQRRITVTLLHETGSHIRWKEVRELVVGRIRNTPETDEALIDPNILSLNILSSGYVHPAQDDRQFLDSDIPRTFYQFEAAWDSSMHNSLLLNRVTPYREKIYMTLSAYIEMENCTQPAVITKDFCMVFYSRDAKLPASRSIRNLFGSGSLRATEGNRVTGVYELSLCHVADAGSPGMQRRRRRVLDTSVAYVRGEENLAGWRPRSDSLILDHQWELEKLSLLQEVEKTRHYLLLREKLETTQRPVPEVLSPASSEDSESRSSSGASSPLSAEGQPSPLEVPNERQRELAVKCLRLLMHTFNREYTHSHVCISASESKLSEMSVTLMRDPSMSPLGAATLTPSSTCPSLIEGRYGATDVRTPQPCSRPASPEPELLPELDSKKTPSPVRATETEKEPQRLLVPDIQEIRVSPIVSKKGYLHFLEPHTAGWAKRFVVVRRPYAYMYNSDKDTVERFVLNLSTAQVEYSEDQQAMLKTPNTFAVCTEHRGILLQANSDKDMHDWLYAFNPLLAGTIRSKLSRRRSAQMRV
notes: KIF1A (Kinesin-3 motor), rat, full length; Vector 3xmCit-N1; also called FL; 3xmCit-tagged FL KIF1A; source: COS cells, transfected, in lysate

Biological target: the molecule itself
Experiment: stepwise photobleaching of single molecules (TIRF microscopy); lysates of COS cells expressing 3xmCit-tagged constructs, in flow chambers with Cy5-microtubules, with AMPPNP; number of bleaching steps of 160–200 spots for each construct

| Protein | stoichiometry N |
| --- | --- |
| B1 | 2 |
| B2 | 2 |
| B3 | 2 |
